# Source: patent publication US20150098933
# T1: ekLAL (rhLAL containing the FLAG affinity and ek cleavage site, designed to give TLAL-G77), produced in HEK293 cells
# T1 chain: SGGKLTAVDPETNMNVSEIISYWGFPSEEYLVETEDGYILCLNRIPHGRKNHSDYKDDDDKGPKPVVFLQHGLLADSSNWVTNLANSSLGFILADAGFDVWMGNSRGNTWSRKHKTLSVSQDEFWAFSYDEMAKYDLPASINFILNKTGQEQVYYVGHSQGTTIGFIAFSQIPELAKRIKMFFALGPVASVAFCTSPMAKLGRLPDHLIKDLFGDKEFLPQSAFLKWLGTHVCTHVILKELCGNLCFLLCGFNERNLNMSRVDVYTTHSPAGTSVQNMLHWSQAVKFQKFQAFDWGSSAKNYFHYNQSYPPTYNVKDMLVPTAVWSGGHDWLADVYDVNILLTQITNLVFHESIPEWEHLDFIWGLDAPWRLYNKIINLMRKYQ
# T2: ekLAL (rhLAL containing the FLAG affinity and ek cleavage site, designed to give TLAL-K76), produced in HEK293 cells
# T2 chain: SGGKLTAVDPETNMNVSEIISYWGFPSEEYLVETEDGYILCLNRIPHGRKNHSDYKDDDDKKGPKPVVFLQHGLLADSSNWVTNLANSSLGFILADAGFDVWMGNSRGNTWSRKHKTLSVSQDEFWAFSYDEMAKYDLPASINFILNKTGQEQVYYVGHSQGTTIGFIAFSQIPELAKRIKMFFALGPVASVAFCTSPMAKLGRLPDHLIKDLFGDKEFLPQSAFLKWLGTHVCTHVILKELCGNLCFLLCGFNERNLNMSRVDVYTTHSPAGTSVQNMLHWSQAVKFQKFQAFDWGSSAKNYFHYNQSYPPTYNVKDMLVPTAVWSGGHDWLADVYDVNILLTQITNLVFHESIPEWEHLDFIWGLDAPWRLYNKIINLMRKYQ
# T3: rhLAL protein produced from transgenic chicken
# T3 chain: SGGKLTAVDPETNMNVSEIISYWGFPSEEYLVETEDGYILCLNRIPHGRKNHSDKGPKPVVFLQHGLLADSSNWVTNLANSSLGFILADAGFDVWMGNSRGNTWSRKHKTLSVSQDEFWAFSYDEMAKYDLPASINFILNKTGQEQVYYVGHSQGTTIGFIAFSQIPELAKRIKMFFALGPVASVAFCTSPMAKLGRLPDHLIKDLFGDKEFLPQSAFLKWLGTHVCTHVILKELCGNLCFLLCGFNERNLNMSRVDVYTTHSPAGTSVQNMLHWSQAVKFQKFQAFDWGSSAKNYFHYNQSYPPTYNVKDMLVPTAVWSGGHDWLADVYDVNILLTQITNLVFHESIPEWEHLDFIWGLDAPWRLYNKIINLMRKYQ
# T4: full-length rhLAL produced in HEK293 cells
# T4 chain: T3 chain
# B1: bovine enterokinase (EC 3.4.21.9) (protein)
# chain: IVGGSDSREGAWPWVVALYFDDQQVCGASLVSRDWLVSAAHCVYGRNMEPSKWKAVLGLHMASNLTSPQIETRLIDQIVINPHYNKRRKNNDIAMMHLEMKVNYTDYIQPICLPEENQVFPPGRICSIAGWGALIYQGSTADVLQEADVPLLSNEKCQQQMPEYNITENMVCAGYEAGGVDSCQGDSGGPLMCQENNRWLLAGVTSFGYQCALPNRPGVYARVPRFTEWIQSFLH
# How the values were obtained:
# [1] = biological target: T1, ekLAL (rhLAL containing the FLAG …)
# [2] = biological target: T2, ekLAL (rhLAL containing the FLAG …)
# [3] = biological target: T3, rhLAL protein produced from transgenic …
# [4] = biological target: T4, full-length rhLAL produced in HEK293 …
protein,measurement,setting,value
B1,"proteolytic cleavage (ek digestion, 6 days at room temperature, SDS-PAGE)",[1],approximately 50% cleavage into TLAL-G77
same,"proteolytic cleavage (ek digestion, 6 days at room temperature)",[2],>70% cleavage into TLAL-K76
same,proteolytic cleavage (molecular weight before and after ek digestion),[3],non-specific ek cleavage did not occur during the digestion reaction
same,proteolytic cleavage (molecular weight before and after ek digestion),[4],non-specific ek cleavage did not occur during the digestion reaction
